For test [1], the target named is T1, human Claudin 18.2 (hCLDN18.2) (human, UniProt P56856-2 1-261). In words: cell-based or functional assay.
Test [2] addresses T1, human Claudin 18.2 (hCLDN18.2). As to the kind of experiment: FACS, HEK293-hCLDN18.2 cells. An excerpt:
(§1) FACS was used to detect the binding of anti-CLDN18.2 chimeric antibodies to HEK293 cells stably transfected expressing hCLDN18.2 (HEK293-hCLDN18.2) and gastric cancer tumor tissue-derived cells naturally expressing hCLDN18.2 (PDX-hCLDN18.2).
(Flow cytometry measures light scatter and fluorescence of single cells or particles in a stream.)

The target is the same in test [3]. As to the kind of experiment: FACS, PDX-hCLDN18.2 gastric cancer tumor tissue-derived cells.
Description: as §1

Test [4] shares this target. In words: cell-based or functional assay. This is another data set of the same source.
The target in test [5] is murine CLDN18.2 (mCLDN18.2) (murine) (UniProt P56857). In words: FACS, HEK293-mCLDN18.2 cells.

This note sets out measurements from patent US20220411492A1 (QILU PHARMACEUTICAL, published 2022).

B1: ch-126A11 (antibody, V domains shown)
VH: QVQLKESGPGLVAPSQSLSITCTVSEFSLTTYGVSWVRQPPGKGLEWLGVIWGDGSTNYHSALISRLSISKDTSKSQVFLKLNSLQTDDTATYYCAKPGLRNAMDYWGQGTSVTVSS
VL: DIVMTQSPSSLSVSAGEKVTMSCKSSQSLLNSGNQKNYLAWYQQKPGQPPKLLIYGASTRESGVPDRFTGSGSGTDFTLTISSVQAEDLAVYYCQNDLIYPLTFGAGTKLELK
notes: also called chimeric antibody of clone 126A11
For the molecule B1, in test [1], the “CDC EC50” value amounted to 0.065 µg/mL and the “CDC Maximum lysis (%)” value came to 95%. Moreover, in test [2], it took 2.12 nM to reach a half-maximal effect (EC50) and the “Mean maximum fluorescence intensity (Top MFI)” value came to 9970 MFI. Besides, in test [3], it took 15 nM to reach a half-maximal effect (EC50) and the “Mean maximum fluorescence intensity (Top MFI)” value stood at 17100 MFI. Besides, in test [4], the “ADCC EC50” value came to 0.01 µg/mL and the “ADCC Maximum lysis (%)” value is 36.6%. In test [5], this molecule came in with an EC50 of 0.573 nM and a Mean maximum fluorescence intensity (Top MFI) of 7640 MFI.

B2: ch-252F11 (antibody, V domains shown)
VH: EIQLVESGGGLVRPGGSLKLSCAASGFSFKNYVMSWVRQSPERRLEWVAEIRTGGDYTYYVDTVTGRFTISRDNAKNTLYLEMTSLRSEDTATYYCARVGYGNSLDYWGQGTTLTVSS
VL: DIVMTQSPSSLTVTAGEKVTMSCKSSQSLLNSGNQKNYLTWYQQKPGQPPKLLIYWASTRESGVPDRFTGSGSGTDFTLTISSVQAEDLAVYSCQNNYFYPLTFGAGTELELK
notes: also called chimeric antibody of clone 252F11
For B2, in test [1], the “CDC EC50” value is 0.179 µg/mL and the “CDC Maximum lysis (%)” value turned out to be 95.4%. Besides, in test [2], the EC50 is 2.2 nM and the “Mean maximum fluorescence intensity (Top MFI)” value turned out to be 8380 MFI. Further, in test [3], the midpoint of the response, the EC50, lay at 15.8 nM and the “Mean maximum fluorescence intensity (Top MFI)” value turned out to be 16500 MFI. Also, in test [4], the “ADCC EC50” value was determined as 0.022 µg/mL and the “ADCC Maximum lysis (%)” value was 31.1%. In test [5], the EC50 stood at 0.948 nM and the Mean maximum fluorescence intensity (Top MFI) was 8980 MFI.

B3: ch-241F7 (antibody, V domains shown)
VH: EVQLQQSGPELEKPGASVKISCKASGYSFTAYNMNWVRQRNGKSLEWIGNIDPYYGGTNYNQKFKGKATLTVDKSSSTAYMQLKSLTSEDSAVYFCATVYYGNSLIYWGQGTLVTVSA
VL: DIVMTQSPSSLTVTAGEKVTMSCKSSQSLLNSGNQKNYLTWYQQKPGQPPKLLIYWASTRESGVPDRFTGTGSGTDFTLTISSVQAEDLAVYYCQNNYFYPLTFGAGTQLELK
notes: also called chimeric antibody of clone 241F7
Take B3: in test [1], the “CDC EC50” value was determined as 0.099 µg/mL and the “CDC Maximum lysis (%)” value came to 95%. Also, in test [2], the EC50 is 3.02 nM and the “Mean maximum fluorescence intensity (Top MFI)” value was determined as 12200 MFI. In test [3], the EC50 worked out at 4.87 nM and the “Mean maximum fluorescence intensity (Top MFI)” value stood at 15200 MFI. Further, in test [4], the “ADCC EC50” value was 0.027 µg/mL and the “ADCC Maximum lysis (%)” value is 36.6%. For the same molecule, in test [5], the EC50 amounted to 1.16 nM and the Mean maximum fluorescence intensity (Top MFI) turned out to be 10500 MFI.

B4: ch-239E9 (antibody, V domains shown)
VH: QVQLQQSGPELVRPGVSVKISCKGSSYTFTDYTMHWVKQSHAKSLEWIGFIGVYYGNTNYNQKFKGKATMTVDKSSSTAYMELARLTSEDSAVYYCARIGRGNAMDYWGQGTSVTVSS
VL: DIVMTQSPSSLTVTAGEKVTMSCKSSQSLLNSGNQKNYLTWYQQKPGQPPKLLIYWASTRESGVPDRFTGSGSGTDFTLTISSVQAEDLAVYNCQNAYSYPFTFGSGTKLEIK
notes: also called chimeric antibody of clone 239E9
As to B4, in test [1], the “CDC EC50” value turned out to be 0.139 µg/mL and the “CDC Maximum lysis (%)” value was determined as 94.8%. In test [2], a half-maximal response (EC50) required 2.31 nM and the “Mean maximum fluorescence intensity (Top MFI)” value came to 9270 MFI. In test [3], it took 4.55 nM to reach a half-maximal effect (EC50) and the “Mean maximum fluorescence intensity (Top MFI)” value turned out to be 14600 MFI. In test [4], the “ADCC EC50” value stood at 0.021 µg/mL and the “ADCC Maximum lysis (%)” value worked out at 36.7%. In addition, in test [5], the EC50 stood at 1.24 nM and the Mean maximum fluorescence intensity (Top MFI) came to 12700 MFI.

B5: ch-229C9 (antibody, V domains shown)
VH: DVQLQESGPDLVKPSQSLSLICTVTGYSITSGYSWHWIRQFPGNKLEWMGYIHYSGGTNYNPSLKSRISFTRDTSKNQFFLQLNSVTTEDTATYYCARLERGNSFAYWGQGTLVTVSA
VL: DIVMTQSPSSLTVTAGEKVTMSCKSTQSLLNSGNQKNYLTWYQQKPGQPPKLLIYWASTRESGVPDRFTGSGSGTDFTLTISSLQAEDLAVYYCQNDYFYPFTFGSGTKLEIK
notes: also called chimeric antibody of clone 229C9
Consider B5, for which, in test [1], the “CDC EC50” value was found to be 0.165 µg/mL and the “CDC Maximum lysis (%)” value came out at 96.1%. For the same molecule, in test [2], the EC50 stood at 2.46 nM and the “Mean maximum fluorescence intensity (Top MFI)” value is 9870 MFI. Further, in test [3], the EC50 was 10.7 nM and the “Mean maximum fluorescence intensity (Top MFI)” value came out at 15700 MFI. In addition, in test [4], the “ADCC EC50” value turned out to be 0.023 µg/mL and the “ADCC Maximum lysis (%)” value turned out to be 29.1%. Moreover, in test [5], the EC50 was found to be 1.19 nM and the Mean maximum fluorescence intensity (Top MFI) stood at 12700 MFI.

B6: ch-299B2 (antibody, V domains shown)
VH: QVQLKQSGPELVRPGASVKLSCKTSGYIFTNYWIHWVKQRSGQGLEWVVRIYPGTGNTYYNEKFTGKATLTADKSSSTAYMQLSSLKYEDSAVYFCSREGYGKGNSMDYWGQGTSVTVSS
VL: DIVMTQSPSSLTVTAGEKVTMNCKSSQSLLNSGNQKNYLTWYQQKPGQPPKLLFYWASTRESGVPDRFTGSGSGTDFTLTISSVQAEDLAVYHCQNAYYYPYTFGGGTKLEMK
notes: also called chimeric antibody of clone 299B2
With B6, in test [1], the “CDC EC50” value stood at 0.124 µg/mL and the “CDC Maximum lysis (%)” value was 95.5%. Also, in test [2], a half-maximal effect (EC50) was put at 1.52 nM and the “Mean maximum fluorescence intensity (Top MFI)” value is 10100 MFI. Also, in test [3], the EC50 came out at 5.81 nM and the “Mean maximum fluorescence intensity (Top MFI)” value is 16300 MFI. Further, in test [4], the “ADCC EC50” value amounted to 0.047 µg/mL and the “ADCC Maximum lysis (%)” value came out at 33.5%. In test [5], the EC50 is 0.758 nM and the Mean maximum fluorescence intensity (Top MFI) was 13600 MFI.

B7: ch-287F12 (antibody, V domains shown)
VH: QIQLVQSGPELKRPGETVRISCKASGFTFTTAGMHWVQKMAGKGLKWLGWTNTHSGEPKYAEDFKGRFAFSLDTSGSDAYLQIGNLKYEDAATYFCAKWGRGNALDYWGQGTSVTVSS
VL: DIVMTQSPSSLTVTAGEKVTMTCKSSQSLLNSGNQKNYLTWYQQKPGQPPKLLIYWASTRESGVPDRFTGSGSGTDFTLTINTVQAEDLAVYYCQNTYSYPLTFGGGTKLELR
notes: also called chimeric antibody of clone 287F12
For the molecule B7, in test [1], the “CDC EC50” value is 0.141 µg/mL and the “CDC Maximum lysis (%)” value was 96.3%. Besides, in test [2], a half-maximal effect (EC50) was put at 2.65 nM and the “Mean maximum fluorescence intensity (Top MFI)” value came to 10900 MFI. Further, in test [3], the EC50 was found to be 16.8 nM and the “Mean maximum fluorescence intensity (Top MFI)” value worked out at 17600 MFI. In test [4], the “ADCC EC50” value worked out at 0.017 µg/mL and the “ADCC Maximum lysis (%)” value came to 35.5%. In test [5], this molecule displayed an EC50 of 1.14 nM and a Mean maximum fluorescence intensity (Top MFI) of 10200 MFI.

B8: ch-59F9 (antibody, V domains shown)
VH: QVQLQQSGAELMKPGASVKLPCKASGYTLTGYWIEWLKQRPRHGLEWIGEILLGSGSIKYNVKFKDKATFTADTSSNTAYMQLNSLTTEDSAIYYCARKGLRGNSFDYWGQGTTLTVSS
VL: DIVMTQSPSSLTVTAGEKVTMSCKSSQSLLNSGNQKSYLTWYQQKPGQPPKRLIYWASTRESGVPDRFTGSGSGTDFTLTISSVQAEDLAVYYCQNDYYYPFTFGSGTKLEIK
notes: also called chimeric antibody of clone 59F9
Regarding B8, in test [1], the “CDC EC50” value stood at 0.091 µg/mL and the “CDC Maximum lysis (%)” value was determined as 94.7%. Further, in test [2], the EC50 was found to be 2.41 nM and the “Mean maximum fluorescence intensity (Top MFI)” value came to 9040 MFI. Also, in test [3], the EC50 is 12.4 nM and the “Mean maximum fluorescence intensity (Top MFI)” value is 18100 MFI. Besides, in test [4], the “ADCC EC50” value turned out to be 0.023 µg/mL and the “ADCC Maximum lysis (%)” value is 29.4%. For the same molecule, in test [5], the EC50 came to 1.22 nM and the Mean maximum fluorescence intensity (Top MFI) worked out at 11200 MFI.

B9: ch-253C4 (antibody, V domains shown)
VH: QVQLKQSGAELVRPGASVSLSCKTSGYIFTSYWIHWVKQRSGQGLEWIGRFYPGTGTAYYNENFEGKATLTADRSSSTAYMQLSSLKSDDSAVYFCTREGYGKGNAMDYWGQGTSVTVSS
VL: DIVMTQSPSSLTVTTGEKVTLSCKSSQSLLNSGNQKNYLTWYQQKSGQPPELLIYWASTRESGVPDRFTGSGSGTDFTLTVSSVQAEDLAVYYCQNDYYFPFTFGGGTKLEIK
notes: also called chimeric antibody of clone 253C4
As for B9, in test [1], the “CDC EC50” value was determined as 0.038 µg/mL and the “CDC Maximum lysis (%)” value turned out to be 95.2%. In test [2], the EC50 is 2.27 nM and the “Mean maximum fluorescence intensity (Top MFI)” value turned out to be 10300 MFI. Further, in test [3], the EC50 is 9.73 nM and the “Mean maximum fluorescence intensity (Top MFI)” value is 15500 MFI. In addition, in test [4], the “ADCC EC50” value was 0.036 µg/mL and the “ADCC Maximum lysis (%)” value amounted to 35.7%. In test [5], this molecule gave an EC50 of 0.79 nM and a Mean maximum fluorescence intensity (Top MFI) of 8330 MFI.

B10: ch-251H11 (antibody, V domains shown)
VH: QVQLKQSGAELVRPGASVKLSCKTSGYTFTTFWIHWIKQRSGQGLEWIAKIYPGTGYTYYNEKFKGKATLTADKSSSAAYMQLSSLKSEDSAVYFCAREGYGKGNAVDFWGQGSSVTVSS
VL: DIVMTQSPSSLTVTAGEKVTMSCKSSQSLFNSGNQKNYLTWYQQKPGQPPKLLIYWASTRESGVPDRFTGSGSGTDFTLTIDSVQAEDLAVYYCQNDYTYPSTFGGGTNLEIK
notes: also called chimeric antibody of clone 251H11
Consider B10, for which, in test [1], the “CDC EC50” value was 0.359 µg/mL and the “CDC Maximum lysis (%)” value was found to be 97.1%. In test [2], the half-maximal effective concentration (EC50) came to 2.72 nM and the “Mean maximum fluorescence intensity (Top MFI)” value was found to be 10800 MFI. In addition, in test [3], the EC50 stood at 96.2 nM and the “Mean maximum fluorescence intensity (Top MFI)” value was 19900 MFI. In addition, in test [4], the “ADCC EC50” value stood at 0.024 µg/mL and the “ADCC Maximum lysis (%)” value turned out to be 38.8%. For the same molecule, in test [5], the 50% effective concentration (EC50) was 1.01 nM and the Mean maximum fluorescence intensity (Top MFI) is 8590 MFI.

One may read the EC50 as the concentration at which the effect is half-maximal.
